The source of these data is PMC12374985.

The target in this assay is endogenous PKM2 (human (endogenous in A549, PC9 and HEK293T)) (UniProt P14618). Description: cross-linking.

endogenous PKM2, P14618 1-531 (natural protein; other documents disagree on this pair), sequence (P14618 whole entry): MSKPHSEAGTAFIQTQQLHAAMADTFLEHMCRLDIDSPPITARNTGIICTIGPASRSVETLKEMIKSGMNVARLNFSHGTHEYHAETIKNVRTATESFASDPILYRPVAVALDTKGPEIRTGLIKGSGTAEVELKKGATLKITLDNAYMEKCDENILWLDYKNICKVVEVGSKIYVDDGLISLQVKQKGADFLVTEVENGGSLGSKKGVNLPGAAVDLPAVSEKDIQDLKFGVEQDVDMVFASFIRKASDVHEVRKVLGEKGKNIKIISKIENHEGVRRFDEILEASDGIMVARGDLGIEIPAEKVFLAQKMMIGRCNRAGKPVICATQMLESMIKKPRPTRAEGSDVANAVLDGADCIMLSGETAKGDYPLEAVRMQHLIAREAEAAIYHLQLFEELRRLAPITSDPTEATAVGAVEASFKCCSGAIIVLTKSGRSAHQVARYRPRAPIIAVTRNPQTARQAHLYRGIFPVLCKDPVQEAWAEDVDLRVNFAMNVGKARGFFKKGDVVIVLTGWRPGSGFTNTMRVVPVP

The term stoichiometry N denotes a count of units in the complex or per binding partner. “endogenous PKM2, P14618 1-531 (natural protein; other documents disagree on this pair)” had a stoichiometry N of 2.
